The target in this data set is endogenous tau of wild-type mouse primary cortical neurons, P10637.
Chain of endogenous tau of wild-type mouse primary cortical neurons, P10637 (P10637 other isoform, or with tags, fused parts or gaps): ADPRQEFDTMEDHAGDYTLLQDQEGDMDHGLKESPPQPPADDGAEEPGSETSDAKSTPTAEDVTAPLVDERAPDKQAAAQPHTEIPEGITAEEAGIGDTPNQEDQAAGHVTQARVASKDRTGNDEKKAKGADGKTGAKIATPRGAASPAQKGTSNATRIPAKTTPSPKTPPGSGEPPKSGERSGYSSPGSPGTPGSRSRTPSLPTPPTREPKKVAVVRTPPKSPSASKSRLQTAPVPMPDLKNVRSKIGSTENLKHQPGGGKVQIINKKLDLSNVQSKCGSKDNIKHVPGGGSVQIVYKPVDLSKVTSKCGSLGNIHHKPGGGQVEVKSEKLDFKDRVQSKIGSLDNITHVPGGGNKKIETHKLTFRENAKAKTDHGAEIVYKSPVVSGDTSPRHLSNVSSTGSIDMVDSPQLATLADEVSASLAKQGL

B1: caspase 3 (activated, cleaved caspase 3) of mouse primary cortical neurons (protein)
chain: SGIYLDSSYKMDYPEMGICIIINNKNFHKSTGMSSRSGTDVDAANLRETFMGLKYQVRNKNDLTREDILELMDSVSKEDHSKRSSFVCVILSHGDEGVIYGTNGPVELKKLTSFFRGDYCRSLTGKPKLFIIQACRGTELDCGIETDSGTDEEMACQKIPVEADFLYAYSTAPGYYSWRNSKDGSWFIQSLCSMLKLYAHKLEFMHILTRVNRKVATEFESFSLDSTFHAKKQIPCIVSMLTKELYFYH
Turning to B1, the “tau cleaved at Asp421 (TauC3 western blot, TauC3 to total tau)” value is “did result in increased cleavage of tau as measured by TauC3 western blot”.
